Data as given in publication doi:10.1101/2022.06.08.495335.

Biological target: clathrin N-terminal domain (NTD) (UniProt Q00610)
Test: fluorescence polarisation + ITC

Sequence of UniProt Q00610 (Q00610 1-364): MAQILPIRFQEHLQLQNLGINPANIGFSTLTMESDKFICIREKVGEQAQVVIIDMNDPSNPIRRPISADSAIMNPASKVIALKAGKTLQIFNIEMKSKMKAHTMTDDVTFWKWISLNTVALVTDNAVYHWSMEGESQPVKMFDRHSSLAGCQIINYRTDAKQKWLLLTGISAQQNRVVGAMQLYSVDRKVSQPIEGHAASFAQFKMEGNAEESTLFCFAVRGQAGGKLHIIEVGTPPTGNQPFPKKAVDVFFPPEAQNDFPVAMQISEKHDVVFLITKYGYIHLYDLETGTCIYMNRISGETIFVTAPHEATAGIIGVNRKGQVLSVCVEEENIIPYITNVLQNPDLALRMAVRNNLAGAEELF

fold increase in affinity against the wild-type peptide: 20 fold
Substance: HURP_(832-846) phosphorylated peptide (pS839) (from UniProt Q15398 832-846)
